Reference: patent US20240082402A1 (ELPIS BIOPHARMACEUTICALS, published 2024)

What was measured:
[1] = biological target: T1, full-length human CD19 on transfected K562 cells (human, UniProt P15391 20-556); test: FACS, bispecific scFv at 200 nM on CD19 K562 cells, Alexa Fluor 647 anti-His detection, % positive cells
T1 construct: whole, on cells; K562 clone transfected with pCMV6-Entry; also called CD19 K562; CD19/K562; not shown: flag or Myc tag at the C-terminus
T1 sequence (looked up): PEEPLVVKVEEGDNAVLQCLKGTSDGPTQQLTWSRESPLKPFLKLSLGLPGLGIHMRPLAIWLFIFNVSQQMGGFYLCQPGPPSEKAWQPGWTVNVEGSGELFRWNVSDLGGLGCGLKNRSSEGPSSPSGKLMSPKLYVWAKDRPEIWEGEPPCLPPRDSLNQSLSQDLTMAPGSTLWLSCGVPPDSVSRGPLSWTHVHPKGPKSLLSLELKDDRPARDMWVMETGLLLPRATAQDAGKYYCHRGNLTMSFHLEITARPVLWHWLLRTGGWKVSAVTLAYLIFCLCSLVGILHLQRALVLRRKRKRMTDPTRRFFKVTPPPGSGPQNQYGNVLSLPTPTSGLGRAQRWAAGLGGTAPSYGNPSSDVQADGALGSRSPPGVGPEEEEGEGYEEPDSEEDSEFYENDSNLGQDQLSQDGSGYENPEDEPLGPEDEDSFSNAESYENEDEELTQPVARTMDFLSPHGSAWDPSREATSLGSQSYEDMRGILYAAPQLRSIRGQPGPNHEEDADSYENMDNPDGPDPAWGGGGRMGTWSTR
Experimental: (§1) Cells were spun down at 1300 rpm for 5 minutes at 4° C. to remove unbound antibodies. Cells were then washed once with 200 iaL of PBS per well. […] Samples were then spun down at 1300 rpm for 5 minutes at 4° C. and washed twice with 200uL of 1×PBS per well. The resultant samples were reconstituted in 200 uL of 1×PBS and read on Attune™ NxT Flow Cytometer.

[2] = biological target: T1, full-length human CD19 on transfected …; test: cell-based or functional assay
[3] = biological target: full-length human CD22 on transfected K562 cells (human, UniProt P20273 20-847); test: cell-based or functional assay
[4] = biological target: human CD19 and human CD22 co-expressed on transfected K562 cells (human, UniProt P15391 20-556; P20273 20-847); test: cell-based or functional assay
[5] = biological target: T1, full-length human CD19 on transfected …; test: FACS, scFv at 200 nM on CD19 K562 cells, Alexa Fluor 647 anti-His detection, % positive cells
Experimental: as §1

B1: EPC-001-5 (bispecific antibody)
tandem scFv, anti-CD19 scFv - linker - anti-CD22 scFv - Flag - His: QVQLQQWGAGLLKPSETLSLTCAVYGGSFSGYYWTWIRQPPGKGLEWIGEINHGGSSNYNPSLKSRVTISVDTSKKQFSLNLNSVTAADTAVYYCARGLGYRSGWYEVENAFDIWGQGTMVTVSSGGGGSGGGGSGGGGSQPVLTQPPSVSVAPGQTARITCGGNKIESRSVHWYQQKPGQAPVLVVYDDGARPSGIPERLSGSNSGDTATLTISRVEPGDEADYYCQVWDGSSVIFGGGTKLTVLGGGGSGGGGSGGGGSGGGGSQVQLVQSGAEVKRPGASVKVSCKASGYTFTSYGISWVRQAPGQGLEWMGWISAYNGNTNYAQKLQGRVTMTTDTSTSTAYMELRSLRSDDTAVYYCARDPGIAVAGTVDYWGQGTLVTVSSGGGGSGGGGSGGGGSEIVMTQSPATLSVSPGEGVTLSCRASQSVSSNLAWYQQRPGQAPRLLIYGASIKATDVPDRFSGGGSGTDFTLSISNVQSEDFAVYYCQQYHTWTPVTFGGGTKVEIKDYKDDDDKGGHHHHHH
notes: also called EPC-001-5 (bispecific scFv)
binding result [1]: binds

B2: EPC-001-19 (bispecific CAR; G4S linker; co-expressed with EGFR), on transduced human T cells (other)
chain: EVQLVQSGAEVKKPGASVKVSCKASGYTFTSYGISWVRQAPGQGLEWMGWISAYNGNTNYAQKLQGRVTMTTDTSTSTAYMELRSLRSDDTAVYYCARDYGDPSGDDYWGQGTLVTVSSGGGGSGGGGSGGGGSEIVLTQSPATLSVSPGEGVTLSCRASQSVSSNLAWYQQRPGQAPRLLIYGASIKATDVPDRFSGGGSGTDFTLSISNLQSEDFAVYYCQQYHTWPPVTFGGGTKVEIKGGGGSQVQLQQWGAGLLKPSETLSLTCAVYGGSFSGYYWTWIRQPPGKGLEWIGEINHGGSSNYNPSLKSRVTISVDTSKKQFSLNLNSVTAADTAVYYCARGLGYRSGWYEVENAFDIWGQGTMVTVSSGGGGSGGGGSGGGGSQPVLTQPPSVSVAPGQTARITCGGNKIESRSVHWYQQKPGQAPVLVVYDDGARPSGIPERLSGSNSGDTATLTISRVEPGDEADYYCQVWDGSSVIFGGGTKLTVLESKYGPPCPPCPMFWVLVVVGGVLACYSLLVTVAFIIFWVKRGRKKLLYIFKQPFMRPVQTTQEEDGCSCRFPEEEEGGCELRVKFSRSADAPAYQQGQNQLYNELNLGRREEYDVLDKRRGRDPEMGGKPRRKNPQEGLYNELQKDKMAEAYSEIGMKGERRRGKGHDGLYQGLSTATKDTYDALHMQALPPR
IFNγ/Granzyme B Double Positive Cell % (CD4+) [2]: 10.9%
IFNγ/Granzyme B Double Positive Cell % (CD8+) [2]: 82%
IFNγ/Granzyme B Double Positive Cell % (CD4+) [3]: 0.92%
IFNγ/Granzyme B Double Positive Cell % (CD8+) [3]: 68.5%
IFNγ/Granzyme B Double Positive Cell % (CD4+) [4]: 3.01%
IFNγ/Granzyme B Double Positive Cell % (CD8+) [4]: 74.9%

B3: EPC-001-10 (bispecific scFv) (bispecific antibody)
scFv: EVQLVQSGAEVKKPGASVKVSCKASGYTFTSYGISWVRQAPGQGLEWMGWISAYNGNTNYAQKLQGRVTMTTDTSTSTAYMELRSLRSDDTAVYYCARDYGDPSGDDYWGQGTLVTVSSGGGGSGGGGSGGGGSEIVLTQSPATLSVSPGEGVTLSCRASQSVSSNLAWYQQRPGQAPRLLIYGASIKATDVPDRFSGGGSGTDFTLSISNLQSEDFAVYYCQQYHTWPPVTFGGGTKVEIKGSTSGSGKPGSGEGSTKGQVQLQQWGAGLLKPSETLSLTCAVYGGSFSGYYWTWIRQPPGKGLEWIGEINHGGSSNYNPSLKSRVTISVDTSKKQFSLNLNSVTAADTAVYYCARGLGYRSGWYEVENAFDIWGQGTMVTVSSGGGGSGGGGSGGGGSQPVLTQPPSVSVAPGQTARITCGGNKIESRSVHWYQQKPGQAPVLVVYDDGARPSGIPERLSGSNSGDTATLTISRVEPGDEADYYCQVWDGSSVIFGGGTKLTVLDYKDDDDKGGHHHHHH
notes: Expressed in E. coli periplasm, Ni-purified
binding result [1]: binds

B4: EPC-001-4 (scFv)
scFv (VH-linker-VL): EVQLVQSGAEVKKPGASVKVSCKASGYTFTSYGISWVRQAPGQGLEWMGWISAYNGNTNYAQKLQGRVTMTTDTSTSTAYMELRSLRSDDTAVYYCARDYGDPSGDDYWGQGTLVTVSSGGGGSGGGGSGGGGSEIVLTQSPATLSVSPGEGVTLSCRASQSVSSNLAWYQQRPGQAPRLLIYGASIKATDVPDRFSGGGSGTDFTLSISNLQSEDFAVYYCQQYHTWPPVTFGGGTKVEIK
notes: also called anti-CD22 monospecific scFv; parental anti-CD22 scFv
binding result [5]: no binding (tested: 200 nM)

B5: EPC-001-8 (bispecific scFv) (bispecific antibody)
scFv: EVQLVQSGGGVVQPGKSLRLSCAASGFTFSSYGMHWVRQAPGKGLEWVAVIWYDGSNKYYADSVKGRFTISRDNSKNTLYLQMNSLRAEDTAVYYCARDGWTGFDYWGQGTTVTVSSGGGGSGGGGSGGGGSEIVLTQSPATLSVSPGEGVTLSCRASQSVSSNLAWYQQRPGQAPRLLIYGASIKATDVPDRFSGGGSGTDFTLSISNLQSEDFAVYYCQQYHTWPPVTFGGGTKVEIKGSTSGSGKPGSGEGSTKGQVQLQQWGAGLLKPSETLSLTCAVYGGSFSGYYWTWIRQPPGKGLEWIGEINHGGSSNYNPSLKSRVTISVDTSKKQFSLNLNSVTAADTAVYYCARGLGYRSGWYEVENAFDIWGQGTMVTVSSGGGGSGGGGSGGGGSQPVLTQPPSVSVAPGQTARITCGGNKIESRSVHWYQQKPGQAPVLVVYDDGARPSGIPERLSGSNSGDTATLTISRVEPGDEADYYCQVWDGSSVIFGGGTKLTVLDYKDDDDKGGHHHHHH
notes: as for B3
binding result [1]: binds

B6: EPC-001-7 (bispecific scFv) (bispecific antibody)
scFv: QVQLQQWGAGLLKPSETLSLTCAVYGGSFSGYYWTWIRQPPGKGLEWIGEINHGGSSNYNPSLKSRVTISVDTSKKQFSLNLNSVTAADTAVYYCARGLGYRSGWYEVENAFDIWGQGTMVTVSSGGGGSGGGGSGGGGSQPVLTQPPSVSVAPGQTARITCGGNKIESRSVHWYQQKPGQAPVLVVYDDGARPSGIPERLSGSNSGDTATLTISRVEPGDEADYYCQVWDGSSVIFGGGTKLTVLGGGGSGGGGSGGGGSGGGGSEVQLVQSGGGVVQPGKSLRLSCAASGFTFSSYGMHWVRQAPGKGLEWVAVIWYDGSNKYYADSVKGRFTISRDNSKNTLYLQMNSLRAEDTAVYYCARDGWTGFDYWGQGTTVTVSSGGGGSGGGGSGGGGSEIVLTQSPATLSVSPGEGVTLSCRASQSVSSNLAWYQQRPGQAPRLLIYGASIKATDVPDRFSGGGSGTDFTLSISNLQSEDFAVYYCQQYHTWPPVTFGGGTKVEIKDYKDDDDKGGHHHHHH
notes: Expressed in E. coli periplasm (pET22b, Rosetta II), Ni-purified; detected with an anti-His antibody
binding result [1]: binds

B7: EPC-001-6 (bispecific antibody)
tandem scFv, anti-CD22 scFv - linker - anti-CD19 scFv - Flag - His: QVQLVQSGAEVKRPGASVKVSCKASGYTFTSYGISWVRQAPGQGLEWMGWISAYNGNTNYAQKLQGRVTMTTDTSTSTAYMELRSLRSDDTAVYYCARDPGIAVAGTVDYWGQGTLVTVSSGGGGSGGGGSGGGGSEIVMTQSPATLSVSPGEGVTLSCRASQSVSSNLAWYQQRPGQAPRLLIYGASIKATDVPDRFSGGGSGTDFTLSISNVQSEDFAVYYCQQYHTWTPVTFGGGTKVEIKGSTSGSGKPGSGEGSTKGQVQLQQWGAGLLKPSETLSLTCAVYGGSFSGYYWTWIRQPPGKGLEWIGEINHGGSSNYNPSLKSRVTISVDTSKKQFSLNLNSVTAADTAVYYCARGLGYRSGWYEVENAFDIWGQGTMVTVSSGGGGSGGGGSGGGGSQPVLTQPPSVSVAPGQTARITCGGNKIESRSVHWYQQKPGQAPVLVVYDDGARPSGIPERLSGSNSGDTATLTISRVEPGDEADYYCQVWDGSSVIFGGGTKLTVLDYKDDDDKGGHHHHHH
notes: also called EPC-001-6 (bispecific scFv)
binding result [1]: binds

B8: EPC-001-9 (bispecific scFv) (bispecific antibody)
scFv: QVQLQQWGAGLLKPSETLSLTCAVYGGSFSGYYWTWIRQPPGKGLEWIGEINHGGSSNYNPSLKSRVTISVDTSKKQFSLNLNSVTAADTAVYYCARGLGYRSGWYEVENAFDIWGQGTMVTVSSGGGGSGGGGSGGGGSQPVLTQPPSVSVAPGQTARITCGGNKIESRSVHWYQQKPGQAPVLVVYDDGARPSGIPERLSGSNSGDTATLTISRVEPGDEADYYCQVWDGSSVIFGGGTKLTVLGGGGSGGGGSGGGGSGGGGSEVQLVQSGAEVKKPGASVKVSCKASGYTFTSYGISWVRQAPGQGLEWMGWISAYNGNTNYAQKLQGRVTMTTDTSTSTAYMELRSLRSDDTAVYYCARDYGDPSGDDYWGQGTLVTVSSGGGGSGGGGSGGGGSEIVLTQSPATLSVSPGEGVTLSCRASQSVSSNLAWYQQRPGQAPRLLIYGASIKATDVPDRFSGGGSGTDFTLSISNLQSEDFAVYYCQQYHTWPPVTFGGGTKVEIKDYKDDDDKGGHHHHHH
notes: as for B3
binding result [1]: binds
